From publication PMC3585277, “The C-Terminal Region Mesd Peptide Mimics Full-Length Mesd and Acts as an Inhibitor of Wnt/β-Catenin Signaling in Cancer Cells” (PLoS ONE, 2013)

How the values were obtained:
HS578T cells [1] = assay: Cell viability, Cell Titer Glo Assay, HS578T cells; format: cell-based, human
Description: (§1) Cell viability was measured in 96-well plates by the Cell Titer Glo Assay (Promega), which is a luminescent assay that is an indicator of live cells as a function of metabolic activity and ATP content.

MDA-MB-231 tumor = conditions: cited from earlier work
Wnt/β-catenin signaling [2] = assay: Super8XTOPFlash luciferase reporter assay, HS578T cells; format: cell-based, human; conditions: 24 h treatment
Description: (§2) Cells were plated into 24-well plates. After overnight culture, the cells were transiently transfected with the TOPFlash or Super8XTOPFlash luciferase construct, β-galactosidase-expressing vector, and pcDNA3.1C-Myc-hLRP5, pCS-Myc-hLRP6 or control vector. After 24 h incubation, cells were treated with Mesd, Mesd peptide, Rspo1 and Wnt3A CM. Cells were then lysed 24 h later and both luciferase and β-galactosidase activities were determined. The luciferase activity was normalized to the β-galactosidase activity.

LRP6 phosphorylation = assay: Western blot of phosphorylated LRP6 in C2C12 cells; format: cell-based, mouse; conditions: C2C12, Wnt3A CM 5%, 6 h; mMesd 0.5 µM, peptide at indicated concentrations
Description: (§3) Cells in 6-well plates were lysed in 0.5 ml of lysis buffer (phosphate-buffered saline containing 1% Triton X-100 and 1 mM PMSF) at 4°C for 10 min. Equal quantities of protein were subjected to SDS-PAGE under reducing conditions. Following transfer to immobilon-P transfer membrane, successive incubations with anti-HA, anti-Wnt10b, anti-β-catenin, anti-OPG, anti-phosphorylated-LRP6, anti-LRP6, anti-Axin2, anti-Cyclin D1 or anti-actin, and horseradish peroxidase-conjugated secondary antibody were carried out for 60–120 min at room temperature. The immunoreactive proteins were then detected using the ECL system. Films showing immunoreactive bands were scanned by Kodak Digital Science DC120 Zoom Digital Camera.

Wnt/β-catenin signaling [3] = assay: TOPFlash luciferase reporter assay, LRP6-transfected HEK293 cells; format: cell-based, human; conditions: Wnt3A CM 5%, Rspo1 40 ng/ml, mMesd 2 µM, peptide at indicated concentrations, 24 h, normalized to β-galactosidase
Description: as §2

Wnt/β-catenin signaling [4] = assay: TOPFlash luciferase reporter assay, LRP5-transfected HEK293 cells; format: cell-based, human; conditions: Wnt3A CM 5%, Rspo1 40 ng/ml, mMesd 2 µM, peptide at indicated concentrations, 24 h, normalized to β-galactosidase
Description: as §2

PC-3 cells [5] = assay: Cell viability, Cell Titer Glo Assay, PC-3 cells; format: cell-based, human; conditions: Mesd 2 µM or hMesd (160–197) 2 µM with Adriamycin 0.5 µM, 2 days after pre-treatment
Description: as §1

Wnt/β-catenin signaling [6] = assay: Super8XTOPFlash luciferase reporter assay, PC-3 cells; format: cell-based, human; conditions: 24 h treatment
Description: as §2

HS578T cells [7] = assay: Cell proliferation assay (trypan blue exclusion), HS578T cells; format: cell-based, human; conditions: DMEM 2% FBS, 10 days, mMesd 2 µM, hMesd (160–197) 4 µM, control peptide 4 µM, n = 3
Description: (§4) Cells were seeded into 6-well plates at a density of 10000 cells/well. RPMI-1640 or DMEM medium containing 2% FBS was used as assay media. After 16 h incubation, the cells were treated with Mesd or its peptide for 10 days. Media were changed every other day. At the end of the experiment, cells were harvested and counted using the trypan blue exclusion assay.

Wnt/β-catenin signaling [8] = conditions: cited from earlier work
Source text: (§5) Treatment of prostate cancer cells with Wnt3A CM or purified recombinant Wnt ...

PC-3 cells [9] = conditions: cited from earlier work
Source text: as §5

PC-3 tumor = conditions: cited from earlier work
Source text: as §5

OPG expression = assay: Western blot of OPG expression in C2C12 cells; format: cell-based, mouse; conditions: 48 h, mMesd 0.5 µM
Description: as §3

PC-3 cells [10] = assay: Cell proliferation assay (trypan blue exclusion), PC-3 cells; format: cell-based, human; conditions: PC-3, RPMI-1640 2% FBS, 10 days; mMesd 2 µM, hMesd (160–197) 4 µM, control peptide 4 µM; n = 3
Description: as §4

B1: Mesd protein: recombinant mouse Mesd protein, full-length; binds mature LRP5 and LRP6, universal antagonist of LRP5/6 modulators (protein)
chain: ADTPGEATPPPRKKKDIRDYNDADMARLLEQWEKDDDIEEGDLPEHKRPSAPIDFSKLDPGKPESILKMTKKGKTLMMFVTVSGNPTEKETEEITSLWQGSLFNANYDVQRFIVGSDRAIFMLRDGSYAWEIKDFLVSQDRCAEVTLEGQMYPGKGGGSKEKNKTKPEKAKKKEGDPKPRASKEDNRAGSRREDL
modifications: 125I (IODO-GEN method) on the radioligand; unlabeled when used as competitor
HS578T cells [1]; Mesd 2 µM or hMesd (160–197) 2 µM with Adriamycin 0.5 µM, 2 days after pre-treatment
  Adriamycin-induced cytotoxicity: potentiate
HS578T cells [1]; single agent: Mesd protein 2 µM or Adriamycin 0.5 µM, Mesd 4 days pre-treatment, then 2 days, n = 4
  inhibition of cell viability: 25%
MDA-MB-231 tumor
  MDA-MB-231 tumor growth: suppressed
Wnt/β-catenin signaling [2]; HS578T transfected with Wnt1 plasmid
  Wnt reporter luciferase activity induced by Wnt1: significantly repress
Wnt/β-catenin signaling [2]; HS578T, endogenous signaling, indicated concentrations
  Wnt reporter luciferase activity: significantly repressed
LRP6 phosphorylation
  Wnt3A-induced endogenous LRP6 phosphorylation: able to suppress
Wnt/β-catenin signaling [3]
  TOPFlash activity induced by LRP6, LRP6 plus Wnt3A, LRP6 plus Rspo1: blocked
Wnt/β-catenin signaling [4]
  TOPFlash activity induced by LRP5, LRP5 plus Wnt3A, LRP5 plus Rspo1: blocked
PC-3 cells [5]
  Adriamycin-induced cytotoxicity: potentiate
Wnt/β-catenin signaling [6]; PC-3, endogenous signaling, indicated concentrations
  Wnt reporter luciferase activity: significantly repressed
Wnt/β-catenin signaling [6]; PC-3 transfected with Wnt1 plasmid
  Wnt reporter luciferase activity induced by Wnt1: significantly repress
HS578T cells [7]
  cell proliferation: displayed inhibitory effect
Wnt/β-catenin signaling [8]
  Wnt/β-catenin signaling in prostate cancer PC-3 cells: markedly inhibited
PC-3 cells [9]
  PC-3 cell proliferation in vitro: suppressed
PC-3 tumor
  PC-3 tumor growth in vivo: suppressed
OPG expression; C2C12, Rspo1 20 ng/ml, Wnt3A CM 2%, mMesd (155–191) 2 µM
  OPG expression induced by Rspo1 plus Wnt3A: repressed
OPG expression; C2C12, Wnt3A CM 5%, peptide at indicated concentrations
  Wnt3A-induced OPG expression: able to suppress
PC-3 cells [10]
  cell proliferation: displayed inhibitory effect
